Experimental data: publication PMC11695602 (Communications Biology, 2025)
Values belong to the binder of their own block, whether it stands above or below them.

Legend:
[1] = target: T1, recombinant human CTNNA3 (CTNNA3-FLAG) (human, UniProt Q9UI47-1 1-895); assay: co-IP
T1 sequence (looked up): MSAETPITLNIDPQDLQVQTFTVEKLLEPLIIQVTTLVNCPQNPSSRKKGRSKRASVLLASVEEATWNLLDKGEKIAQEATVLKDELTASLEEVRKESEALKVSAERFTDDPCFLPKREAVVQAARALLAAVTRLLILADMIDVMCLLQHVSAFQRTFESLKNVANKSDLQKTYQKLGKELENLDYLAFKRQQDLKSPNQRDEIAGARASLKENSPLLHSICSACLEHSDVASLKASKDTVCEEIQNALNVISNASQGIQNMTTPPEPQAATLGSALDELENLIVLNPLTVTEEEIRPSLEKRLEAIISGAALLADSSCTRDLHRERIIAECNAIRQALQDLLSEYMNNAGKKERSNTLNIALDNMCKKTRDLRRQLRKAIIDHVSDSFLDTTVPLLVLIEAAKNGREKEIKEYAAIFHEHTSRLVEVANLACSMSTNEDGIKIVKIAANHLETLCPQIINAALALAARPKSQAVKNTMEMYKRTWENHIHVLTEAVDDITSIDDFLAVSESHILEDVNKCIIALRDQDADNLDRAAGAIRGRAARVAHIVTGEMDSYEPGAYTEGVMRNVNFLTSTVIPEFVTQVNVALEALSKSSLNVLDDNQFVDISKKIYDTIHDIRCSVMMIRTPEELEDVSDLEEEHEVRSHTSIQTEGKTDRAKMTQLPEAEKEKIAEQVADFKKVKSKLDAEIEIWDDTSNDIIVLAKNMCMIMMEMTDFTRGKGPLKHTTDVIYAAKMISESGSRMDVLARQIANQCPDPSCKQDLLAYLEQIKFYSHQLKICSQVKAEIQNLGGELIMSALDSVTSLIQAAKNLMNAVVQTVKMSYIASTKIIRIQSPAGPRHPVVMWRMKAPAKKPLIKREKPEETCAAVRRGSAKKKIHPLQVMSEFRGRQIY

[2] = target: recombinant human p53 (p53-FLAG) (human, UniProt P04637 1-393); assay: co-IP
recombinant human p53 (p53-FLAG), sequence (P04637 whole entry): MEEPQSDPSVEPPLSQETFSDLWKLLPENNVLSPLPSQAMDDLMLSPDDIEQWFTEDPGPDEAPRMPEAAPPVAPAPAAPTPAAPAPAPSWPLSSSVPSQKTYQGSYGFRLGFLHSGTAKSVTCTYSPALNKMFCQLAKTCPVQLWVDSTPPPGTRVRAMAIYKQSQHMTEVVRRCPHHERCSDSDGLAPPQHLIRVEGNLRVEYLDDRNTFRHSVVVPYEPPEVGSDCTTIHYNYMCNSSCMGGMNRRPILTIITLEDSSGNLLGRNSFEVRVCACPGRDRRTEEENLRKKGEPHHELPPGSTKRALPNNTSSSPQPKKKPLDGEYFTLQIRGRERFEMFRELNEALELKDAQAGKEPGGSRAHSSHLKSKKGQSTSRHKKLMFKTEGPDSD

[3] = target: T1, recombinant human CTNNA3 (CTNNA3-FLAG); assay: MST
[4] = target: T1, recombinant human CTNNA3 (CTNNA3-FLAG); assay: BLI

binding result [1]: binds
binding result [2]: binds
B1: recombinant human FLAG-tagged fortilin (fortilin-FLAG) (natural protein, UniProt P13693 1-172, looked up)
chain: MIIYRDLISHDEMFSDIYKIREIADGLCLEVEGKMVSRTEGNIDDSLIGGNASAEGPEGEGTESTVITGVDIVMNHHLQETSFTKEAYKKYIKDYMKSIKGKLEEQRPERVKPFMTGAAEQIKHILANFKNYQFFIGENMNPDGMVALLDYREDGVTPYMIFFKDGLEMEKC

Kd [3]: 33.2 nM
B2: recombinant human fortilin (rh-fortilin), Strep-tagged, red-maleimide-labelled (natural protein, UniProt P13693 1-172, looked up)
chain: B1 chain
modifications: red-maleimide fluorescent dye (Monolith red-maleimide 2nd generation protein labeling kit)

Kd [4]: 36.1 nM
B3: recombinant human fortilin (rh-fortilin), Strep-tagged, biotinylated (natural protein, UniProt P13693 1-172, looked up)
chain: B1 chain
modifications: biotin
